Data as given in patent US20110059077A1 (JURIDICAL FDN THE CHEMO SERO THERAPEUTIC RES INST, published 2011).
Like-named read-outs stand apart in the source and are kept apart here.

B1: mouse anti-human α9 integrin antibody Y9A2 (antibody, V domains shown)
VH: QVQLQQSGAELANPGASVKMSCKASGYTLTTYWMHWVKQRPGQGLEWIGYINPSSGYTEYNQKFKDKATLTADKSSSTAYMQLTSLTSEDSAVYYCAIYGDYGDFYFDYWGQGTTLTVSS
VL: SIVMTQTPKFLLVSAGDRVTMTCKASQSVNTDVAWFQQKPGQSPKLLIYFASNHYTGVPDRFTGSGYGTDFTFTISTVQAEDLAIYFCRQDYSSPFTFGGGTKLEIKR
B2: RY9A2v11(M34L)012 antibody (antibody, human IgG1, kappa, V domains shown)
VH: QVQLVQSGAEVKKPGSSVKMSCKASGYTLTTYWLHWVKQRPGQGLEWIGYINPSSGYTEYNQKFQGRVTITADKSTSTAYMELSSLRSEDTAVYYCAIYGDYGDFYFDYWGQGTTVTVSS
VL: DIQMTQSPSSLSASVGDRVTITCRASQSVNTDVAWYQQKPGKAPKLLIYFASNHYTGVPSRFSGSGSGTDFTFTISSLQPEDIATYYCRQDYSSPFTFGGGTKVEIKR
B3: RY9A2v501 antibody (antibody, V domains shown)
VH: QVQLVQSGAEVKKPGSSVKMSCKASGYTLTTYWMHWVKQRPGQGLEWIGYINPSSGYTEYNQKFKDRVTITADKSTSTAYMELSSLRSEDTAVYYCAIYGDYGDFYFDYWGQGTTVTVSS
VL: DIQMTQSPSSLSASVGDRVTITCKASQSVNTDVAWYQQKPGKAPKLLIYFASNHYTGVPSRFSGSGSGTDFTFTISSLQPEDIATYYCRQDYSSPFTFGGGTKVEIKR
B4: RY9A2v5(IAW)01 antibody (antibody, human IgG1, kappa, V domains shown)
VH: QVQLVQSGAEVKKPGSSVKMSCKASGYTLTTYWIHWVKQRPGQGLEWIGYINPSSGYTEYNQKFKDRVTITADKSTSTAYMELSSLRSEDTAVYYCAIYGDYGAWYFDYWGQGTTVTVSS
VL: DIQMTQSPSSLSASVGDRVTITCKASQSVNTDVAWYQQKPGKAPKLLIYFASNHYTGVPSRFSGSGSGTDFTFTISSLQPEDIATYYCRQDYSSPFTFGGGTKVEIKR
B5: RY9A2v12(M34L)012 antibody (antibody, human IgG1, kappa, V domains shown)
VH: QVQLVQSGAEVKKPGSSVKVSCKASGYTLTTYWLHWVRQAPGQGLEWMGYINPSSGYTEYNQKFQGRVTITADKSTSTAYMELSSLRSEDTAVYYCAIYGDYGDFYFDYWGQGTTVTVSS
VL: DIQMTQSPSSLSASVGDRVTITCRASQSVNTDVAWYQQKPGKAPKLLIYFASNHYTGVPSRFSGSGSGTDFTFTISSLQPEDIATYYCRQDYSSPFTFGGGTKVEIKR
B6: RY9A2v801 antibody (antibody, V domains shown)
VH: QVQLVQSGAEVKKPGSSVKVSCKASGYTLTTYWMHWVRQAPGQGLEWMGYINPSSGYTEYNQKFKDRVTITADKSTSTAYMELSSLRSEDTAVYYCAIYGDYGDFYFDYWGQGTTVTVSS
VL: DIQMTQSPSSLSASVGDRVTITCKASQSVNTDVAWYQQKPGKAPKLLIYFASNHYTGVPSRFSGSGSGTDFTFTISSLQPEDIATYYCRQDYSSPFTFGGGTKVEIKR

Tests used:
Experiment in all cases: cell-based or functional assay
[1] = molecular target: T1, human α9 integrin molecule expressed on SW480 cells (human, UniProt Q13797 30-1035; P05556 21-798)
T1 sequence (Q13797 30-1035, form in doubt, chain 1 of 2): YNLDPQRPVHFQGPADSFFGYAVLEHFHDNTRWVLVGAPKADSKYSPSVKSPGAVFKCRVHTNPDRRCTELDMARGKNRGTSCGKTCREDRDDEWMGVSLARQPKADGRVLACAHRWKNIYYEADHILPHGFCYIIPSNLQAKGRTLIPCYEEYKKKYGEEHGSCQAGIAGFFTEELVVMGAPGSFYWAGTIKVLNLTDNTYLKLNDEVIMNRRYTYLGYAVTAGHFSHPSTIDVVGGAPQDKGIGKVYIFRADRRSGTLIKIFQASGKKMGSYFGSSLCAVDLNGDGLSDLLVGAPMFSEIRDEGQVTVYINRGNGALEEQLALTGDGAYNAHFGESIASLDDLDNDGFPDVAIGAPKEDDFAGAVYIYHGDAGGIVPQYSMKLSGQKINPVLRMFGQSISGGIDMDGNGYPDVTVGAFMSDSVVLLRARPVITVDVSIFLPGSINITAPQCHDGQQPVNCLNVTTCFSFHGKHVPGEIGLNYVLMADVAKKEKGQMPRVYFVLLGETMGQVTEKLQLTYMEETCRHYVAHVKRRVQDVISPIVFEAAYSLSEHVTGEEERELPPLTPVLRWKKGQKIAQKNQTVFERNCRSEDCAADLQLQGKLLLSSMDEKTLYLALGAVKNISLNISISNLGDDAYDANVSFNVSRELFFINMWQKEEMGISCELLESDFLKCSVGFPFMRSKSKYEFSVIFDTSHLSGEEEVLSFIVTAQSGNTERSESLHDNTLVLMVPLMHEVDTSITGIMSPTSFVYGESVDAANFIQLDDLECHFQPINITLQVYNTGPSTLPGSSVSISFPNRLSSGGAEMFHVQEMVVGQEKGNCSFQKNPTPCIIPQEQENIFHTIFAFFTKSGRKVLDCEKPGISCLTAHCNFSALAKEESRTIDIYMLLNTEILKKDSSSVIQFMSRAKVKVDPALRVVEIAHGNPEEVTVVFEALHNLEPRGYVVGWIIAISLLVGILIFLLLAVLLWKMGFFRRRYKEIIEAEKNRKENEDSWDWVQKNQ
T1 sequence (P05556 21-798, form in doubt, chain 2 of 2): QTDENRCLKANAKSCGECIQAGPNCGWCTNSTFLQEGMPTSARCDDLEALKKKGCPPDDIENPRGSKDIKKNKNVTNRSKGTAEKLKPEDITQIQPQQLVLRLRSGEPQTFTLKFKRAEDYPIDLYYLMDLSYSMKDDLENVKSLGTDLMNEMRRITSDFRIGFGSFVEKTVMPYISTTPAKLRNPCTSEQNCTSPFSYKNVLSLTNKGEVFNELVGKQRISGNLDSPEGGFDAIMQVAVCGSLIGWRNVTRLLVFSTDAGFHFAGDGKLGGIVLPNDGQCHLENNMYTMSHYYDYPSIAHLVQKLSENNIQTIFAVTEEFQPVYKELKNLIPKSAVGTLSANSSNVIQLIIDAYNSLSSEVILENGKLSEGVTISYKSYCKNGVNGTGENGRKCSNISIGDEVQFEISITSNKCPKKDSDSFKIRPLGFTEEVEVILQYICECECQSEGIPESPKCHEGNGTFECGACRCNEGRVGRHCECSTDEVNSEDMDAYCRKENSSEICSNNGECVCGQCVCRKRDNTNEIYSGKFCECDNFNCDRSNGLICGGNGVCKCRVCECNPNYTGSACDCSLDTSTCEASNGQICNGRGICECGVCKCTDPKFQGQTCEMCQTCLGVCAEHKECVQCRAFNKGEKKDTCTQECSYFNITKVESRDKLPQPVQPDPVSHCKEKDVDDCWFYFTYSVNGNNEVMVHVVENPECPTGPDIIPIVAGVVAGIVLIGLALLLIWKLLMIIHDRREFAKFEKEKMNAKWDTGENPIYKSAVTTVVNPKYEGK

[2] = molecular target: T1, human α9 integrin molecule expressed on …; remark: listed apart in the source
[3] = molecular target: T1, human α9 integrin molecule expressed on …; remark: listed apart in the source

Row | Binder | specific activity (IC50 relative to mouse Y9A2 = 1), cell adhesion inhibition, SW480/hα9 cells to nOPN-RAA [1] | specific activity (IC50 relative to mouse Y9A2 = 1), cell adhesion inhibition, SW480/hα9 cells to nOPN-RAA [2] | specific activity (IC50 relative to mouse Y9A2 = 1), cell adhesion inhibition to human Tenascin C-RAA [3] | specific activity (IC50 relative to mouse Y9A2 = 1), cell adhesion inhibition to human VCAM-1 [3]
1 | B1 | 1 ratio to IC50 of mouse Y9A2 | 1 ratio to IC50 of mouse Y9A2 | 1 ratio to IC50 of mouse Y9A2 | 1 ratio to IC50 of mouse Y9A2
2 | B2 | – | 0.23 ratio to IC50 of mouse Y9A2 | 0.35 ratio to IC50 of mouse Y9A2 | 0.44 ratio to IC50 of mouse Y9A2
3 | B3 | 0.77 ratio to IC50 of mouse Y9A2 | – | – | –
4 | B4 | – | 0.29 ratio to IC50 of mouse Y9A2 | 0.44 ratio to IC50 of mouse Y9A2 | 1 ratio to IC50 of mouse Y9A2
5 | B5 | – | 0.23 ratio to IC50 of mouse Y9A2 | 0.26 ratio to IC50 of mouse Y9A2 | 0.95 ratio to IC50 of mouse Y9A2
6 | B6 | 0.82 ratio to IC50 of mouse Y9A2 | – | – | –
